According to PMC8967717 (Nature, 2022):
Values joined by “and” are separate entries in the source; they are usually repeats but may differ in a detail not shown here. Equal values may be shown once.

B1: XGv347 Fab fragment (Fab, V domains shown)
VH: QMQLVQSGPEVKKPGTSVKVSCKASGFTFTDVSSLQWVRQARGQRLEWIGWTVVGTGNTNYAPRFQERVTITTDKSTSTAYMELSSLRSEDTAVYYCAAPFCSETSCSDGFDLWGQGTKVTVS
VL: EIVLTQSPGTLSLSPGDRATLSCRASQSVRISYLAWYQQKPGQAPRLLISGSSSRATGIPDRFSASGSGTDFTLTISRLEPEDFAVYYCQQYANSPWTFGQGTKVEV
B2: XGv282 monoclonal antibody (antibody, V domains shown)
VH: QVQLVQSGAEVKKPGSSVKVSCKASGDTFSSYTFSWVRQAPGQGLEWMGRSIPIVGKAIYAQEFQGRVTISADRSTTTVYMELSSLRSDDTAVYYCARDQSGFDFFYYDHWGQGTLVAVSS
VL: QSVLTQPPSASGTPGQRVTISCSGSGSNIGSNTINWYQQLPGTAPKVLIYRNNERPSGVPDRFSGSKSGTSASLTISGLQSEDEAYYHCAAWDDSLNGPVFGGGTKLTVL
notes: IgG1; copies: 2 + 2
B3: XGv282 (antibody, V domains shown)
VH: B2 VH
VL: B2 VL
B4: XGv282 Fab fragment (Fab, V domains shown)
VH: B2 VH
VL: B2 VL
B5: XGv289 Fab fragment (Fab, V domains shown)
VH: QVQLVQSGAEVKKPGASLKVSCRASGYTFTSHFIHWVRQAPGQGLEWMGIINPSGGASYAQNFRDRVTMTTDPSTSTVYMELGSLRSEDTAVYYCARAEGSSWLGWFDPWGQGTLVTVSS
VL: QSVLTQPPSASGTPGQRVTIPCSGSSSNIGNNYVYWYQQLPGTAPKLLVYGNNQRPSGVPDRFSVSKSGTSASLAISGLRSEDEADYYCAAWDDGLSGSGWVFGGGTKLTVL
B6: XGv289 (antibody, V domains shown)
VH: B5 VH
VL: B5 VL
B7: XGv347 monoclonal antibody (antibody, V domains shown)
VH: QMQLVQSGPEVKKPGTSVKVSCKASGFTFTDVSSLQWVRQARGQRLEWIGWTVVGTGNTNYAPRFQERVTITTDKSTSTAYMELSSLRSEDTAVYYCAAPFCSETSCSDGFDLWGQGTKVTVSS
VL: EIVLTQSPGTLSLSPGDRATLSCRASQSVRISYLAWYQQKPGQAPRLLISGSSSRATGIPDRFSASGSGTDFALTISRLEPEDFAVYYCQQYDNSPWTFGQGTKVEVK
notes: copies: 2 + 2
B8: XGv347 (antibody, V domains shown)
VH: B7 VH
VL: B7 VL
B9: XGv265 Fab fragment (Fab, V domains shown)
VH: QITLKESGPTLVKPTQTLTLTCNFSGFSLNTYGVGVGWIRQPPGKALEWLALIYWDGDERYGPFFKNKVTIAKDTSKNQVVLTMTNMDPVDTATYYCARHLIPTIFDYWGQGTLVTVSS
VL: QSALTQPASVSGSPGQSITISCTGTSSDVGGSNYVSWYQHHPDRAPKLLIYEVTNRPSGVSNRFSGSKSANTASLTISGLQAEDEADYYCSSYTTTSTHILFGGGTKLTV
B10: XGv265 (antibody, V domains shown)
VH: B9 VH
VL: B9 VL

Assays:
[1] = target: prefusion-stabilized SARS-CoV-2 Omicron (B.1.1.529) S trimer (SARS-CoV-2, Omicron B.1.1.529 (BA.1), A67V | Δ69–70 | T95I | G142D | Δ143–145 | Δ211 | L212I | ins214EPE | G339D | …); assay: cryo-EM structure; settings: both partners purified
[2] = target: T1, SARS-CoV-2 Omicron RBD (ACROBiosystems, cat. no. SPD-C522e) (SARS-CoV-2, Omicron B.1.1.529 (BA.1), G339D | S371L | S373P | S375F | K417N | N440K | G446S | S477N | T478K | E484A | …); assay: BLI; settings: both partners purified
T1 construct: source: bought: ACROBiosystems

[3] = target: SARS-CoV-2 wild-type spike (S) protein (SARS-CoV-2, WT (MN908947), UniProt P0DTC2); assay: cell-based or functional assay

| Binder | stoichiometry N [1] | authentic virus IC50(μg/ml), Wild-type [3] | pseudovirus IC50(μg/ml), Wild-type [3] | further results |
| --- | --- | --- | --- | --- |
| B1 | 3 Fabs per S trimer and 2 Fabs per S trimer | – | – | – |
| B2 | – | – | – | fold reduction in binding affinity against WT S [2]: 5 fold |
| B3 | – | 0.00102 µg/mL | 0.007 µg/mL | – |
| B4 | 3 Fabs per S trimer | – | – | – |
| B5 | 3 Fabs per S trimer | – | – | – |
| B6 | – | 0.0061 µg/mL | 0.00928 µg/mL | – |
| B7 | – | – | – | fold decrease in binding against WT S [2]: 40 fold |
| B8 | – | 0.0061 µg/mL | 0.0685 µg/mL | – |
| B9 | 2 Fabs per S trimer | – | – | – |
| B10 | – | 0.0122 µg/mL | 0.0105 µg/mL | – |
